Measured values as given in PMC10029155 (2023).
Where no end group is shown, it is not given here.

What follows are binders tested against cathepsin B (Homo sapiens, UniProt P07858) (assay: square wave voltammetry).

| Binder | Kd [nM] |
| --- | --- |
| SSTTNSNSTSNTK-biotin [CTSB BP3, listing 1 of 2 here] | 50.8 |
| SSTTNSNSTSNTK-biotin [CTSB BP3, listing 2 of 2 here] | 11.6 |
| WDMWPSMDWKAE (also: displayed on M13 phage pIII) [CTSB 4-1 phage-displayed peptide] | 73.7 |
